Test results: patent US6989364B1, “Methods for treating cardiac hypertrophy by administering IFN-γ” (Genentech, Inc., priority 1998, dated 2006)
Marks after values point to notes of the source that are not given here.

Tests used:
[1] = test system: male Sprague/Dawley (SD) rats; assay: Cardiac hypertrophy induced by fluprostenol in vivo: body and organ weights; set-up: species or system rat
Description: This pharmacological model tests the ability of IFN-γ to inhibit cardiac hypertrophy induced in rats (e.g. male Wistar or Sprague-Dawley) by subcutaneous injection of fluprostenol (an agonist analog of PGF2α). It is known that rats with pathologic cardiac hypertrophy induced by myocardial infarction have chronically elevated levels of extractable PGF2α in their myocardium. Lai et al, Am. J. Physiol. (Heart Circ. Physiol.) 271:H2197–H2208 (1996). Accordingly, factors that can inhibit the effects of fluprostenol on myocardial growth in vivo are potentially useful for treating cardiac hypertrophy. The effects of IFN-γ on cardiac hypertrophy are determined by measuring the weight of heart, ventricles, and left ventricle (normalized by body weight) relative to fluprostenol-treated rats not receiving IFN-γ. A detailed description of this assay is provided in the examples.
Animals All experimental procedures conformed to the guiding principles of the American Physiology Society, and were approved by Genentech's Institutional Animal Care and Use Committee. The animals used in this study were male Sprague/Dawley (SD) rats (8 weeks of age, Charles River Breeding Laboratories, Inc.). The animals were acclimated to the facility for at least one week before experiments, fed a pelleted rat chow and water ad libitum, and housed in a light and temperature controlled room.
Administration of fluprostenol and/or IFN-γ Rats received subcutaneous injection of fluprostenol (Cayman Chemical, Ann Arbor, Mich.) at 0.15 mg/kg, recombinant mouse IFN-γ (Genentech, Inc., South San Francisco, Calif.) at 0.08 mg/kg, combination of fluprostenol and IFN-γ, or saline vehicle, twice a day for 14 days. In the IFN-γ and fluprostenol+IFN-γ groups, animals were pretreated with IFN-γ for one day. Body weight was measured before and after treatment. A previous study has shown that the dose of fluprostenol used here is the lowest dose which produces a significant cardiac hypertrophy in rats. Lai et al., supra.
Measurement of organ weights Under anesthesia with ketamine/xylazine, the heart, kidney, and spleen were removed, dissected and weighed. The left ventricle was stored at […] for evaluation of gene expression.
Statistical analyisis Results are expressed as mean±SEM. One way analysis of variance (ANOVA) was performed to assess differences in parameters between groups. Significant differences were then subjected to post hoc analysis using Newman-Keuls method; P<0.05 was considered significant.

[2] = test system: rats with pressure overload; assay: Arterial pressure and heart rate in rats with pressure overload; format: in vivo, rat
Description: FIGS. 9A–9C Effects of IFN-γ on systolic arterial pressure, mean arterial pressure, and diastolic arterial pressure in rats with pressure overload. The number in parenthesis is the number of animals in each group. **P<0.01, compared to the sham group. Sham: sham-operated rats; Banded: aortic-banded rats; IFN: IFN-γ, SAP: systolic arterial pressure; MAP: mean arterial pressure; DAP: diastolic arterial pressure.
Experimental protocol in rats with pressure overload The rats with aortic banding randomly received subcutaneous injection of IFN-γ at 0.08 mg/k twice a day for one day before surgery and for 14 days after surgery. Sham animals were not treated. Thirteen days after treatment, a catheter was implanted into the right carotid artery under anesthesia as indicated above. One day after implantation, arterial pressure and HR were measured in conscious rats. The heart and other organs including the liver, kidney, and spleen were removed, weighed, and fixed in 10% buffered formalin for pathological studies. The left ventricle was quickly dissected and frozen with liquid nitrogen in some animals and stored at −80° C. for assessment of gene expression.

[3] = IFN-γ 0.08 mg/kg s.c. twice a day, rats
[4] = s.c. twice a day for 14 days, fluprostenol 0.15 mg/kg, IFN-γ 0.08 mg/kg, mean ± SEM

In the case of “IFN-γ: recombinant mouse IFN-γ (Genentech, Inc., South San Francisco, Calif., or Genzyme, Cambridge, Mass.)”, the “Ratio of heart, ventricular, and left ventricular weights to body weight (FIG. 4)” value ([1]; 14 days, fluprostenol and IFN-γ alone vs vehicle, fluprostenol+IFN-γ vs fluprostenol group) is reported as “did not significantly alter”, the “Effect on body weight, pilot study” value [1, 3] is reported as “little effects on body weight” and the “Effect on fluprostenol-induced cardiac hypertrophy, pilot study” value [1, 3] is reported as “inhibited fluprostenol-induced cardiac hypertrophy”. For the same substance, the “BWO, basal levels of body weight” value ([1]; before treatment, mean ± SEM) was 292.5 ± 3.2 g, the “BW, body weight post treatment” value [1, 4] was 380.8 ± 6.1 g and the “HW, heart weight” value [1, 4] was “.956 ± .029 g”. The “KW, kidney weight” value [1, 4] was 1.327 ± .035 g, the “KW/BW, kidney weight to body weight” value [1, 4] was 3.483 ± .069 g/kg and the “LVW, left ventricular weight” value [1, 4] was “.696 ± .023 g”. The “SW, spleen weight” value [1, 4] was “.924 ± .068 g”, the “SW/BW, spleen weight to body weight” value [1, 4] was 2.415 ± .149 g/kg and the “VW, ventricular weight” value [1, 4] was “.914 ± .029 g”. The “ΔBW, BW-BWO” value [1, 4] was 88.3 ± 5.0 g, the “Incremental increase in arterial pressure (MAP, systolic, diastolic) in banded rats, IFN-γ vs vehicle” value ([2]; FIG. 9) was “not different” and the “HR, heart rate” value ([2]; pressure overload, conscious rats, IFN-γ 0.08 mg/kg s.c. twice a day, mean ± SEM) was 418 ± 19* bpm.
